Data set [1] concerns the target T1, RecA (UniProt P0A7G6 2-353). Kind of data set: stopped-flow fluorescence; pH 5; 1 mM ATP, 10 mM Mg2+; binds in less than 1 s; EMSA: 50 mM phosphate/citrate pH 5-8, 50 mM NaCl, 10 mM MgCl2, 1 mM ATP, 25 C, 5 min, then 0.125% glutaraldehyde; stopped-flow: 20 nM dT79, 1 mM ATP, 10 mM MgCl2. To be noted: protein: commercial; label: 5'-Cy3; single strand.
Data set [2] addresses T1, RecA. In words: EMSA (glutaraldehyde-fixed); pH 5; 1 mM ATP, 10 mM Mg2+; EMSA: 50 mM phosphate/citrate pH 5-8, 50 mM NaCl, 10 mM MgCl2, 1 mM ATP, 25 C, 5 min, then 0.125% glutaraldehyde; stopped-flow: 20 nM dT79, 1 mM ATP, 10 mM MgCl2. To be noted: protein: commercial; label: 5'-FITC; single strand. On the technique in general: Mobility shift assays separate free from complexed probe on a gel.

T1 sequence (P0A7G6 2-353): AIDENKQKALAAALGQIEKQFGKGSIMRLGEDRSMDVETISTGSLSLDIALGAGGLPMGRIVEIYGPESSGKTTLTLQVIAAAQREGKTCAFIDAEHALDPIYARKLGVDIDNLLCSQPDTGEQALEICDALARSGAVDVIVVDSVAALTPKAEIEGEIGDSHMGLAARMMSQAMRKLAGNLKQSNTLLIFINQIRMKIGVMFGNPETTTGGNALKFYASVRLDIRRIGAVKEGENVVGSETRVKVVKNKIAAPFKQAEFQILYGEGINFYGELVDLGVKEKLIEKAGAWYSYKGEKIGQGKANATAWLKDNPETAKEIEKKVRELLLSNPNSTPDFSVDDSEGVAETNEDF

B1: dT79 (ssDNA)
DNA: TTTTTTTTTTTTTTTTTTTTTTTTTTTTTTTTTTTTTTTTTTTTTTTTTTTTTTTTTTTTTTTTTTTTTTTTTTTTTTT
B1: the binding result in data set [1] is “binds”.

B2: 90mer oligonucleotide (ssDNA)
DNA: AAATCAATCTAAAGTATATATGAGTAAACTTGGTCTGACAGTTACCAATGCTTAATCAGTGAGGCACCTATCTCAGCGATCTGTCTATTT
B2: the binding signal in data set [2] was ~10 fold higher affinity at pH 5 than at pH 8.

Source of the values: PMC7655802, “Antibiotic-induced DNA damage results in a controlled loss of pH homeostasis and genome instability”.
